To fix the notation:
B1: N^ε24-[(4S)-4-[[(4S)-4-[[(4S)-4-[[(4S)-4-acetamido-4-carboxybutanoyl]amino]-4-carboxybutanoyl]amino]-4-carboxybutanoyl]amino]-4-carboxybutanoyl]-[Imp1, Aib2, … (peptide)
peptide: [Desaminohistidyl][Aib]HGTFTSDYSKYLESRRAQDFVK([γGlu-γGlu-γGlu-γGlu-Ac])WLLST-OH
SMILES: CC(=O)N[C@@H](CCC(=O)N[C@@H](CCC(=O)N[C@@H](CCC(=O)N[C@@H](CCC(=O)NCCCC[C@H](NC(=O)[C@@H](NC(=O)[C@H](Cc1ccccc1)NC(=O)[C@H](CC(=O)O)NC(=O)[C@H](CCC(N)=O)NC(=O)[C@H](C)NC(=O)[C@H](CCCNC(=N)N)NC(=O)[C@H](CCCNC(=N)N)NC(=O)[C@H](CO)NC(=O)[C@H](CCC(=O)O)NC(=O)[C@H](CC(C)C)NC(=O)[C@H](Cc1ccc(O)cc1)NC(=O)[C@H](CCCCN)NC(=O)[C@H](CO)NC(=O)[C@H](Cc1ccc(O)cc1)NC(=O)[C@H](CC(=O)O)NC(=O)[C@H](CO)NC(=O)[C@@H](NC(=O)[C@H](Cc1ccccc1)NC(=O)[C@@H](NC(=O)CNC(=O)[C@H](Cc1c[nH]cn1)NC(=O)C(C)(C)NC(=O)CCc1c[nH]cn1)[C@@H](C)O)[C@@H](C)O)C(C)C)C(=O)N[C@@H](Cc1c[nH]c2ccccc12)C(=O)N[C@@H](CC(C)C)C(=O)N[C@@H](CC(C)C)C(=O)N[C@@H](CO)C(=O)N[C@H](C(=O)O)[C@@H](C)O)C(=O)O)C(=O)O)C(=O)O)C(=O)O
notes: Imp and Aib written X under substitutions
B2: N^ε28-[(4S)-4-[[(4S)-4-[[(4S)-4-[[(4S)-4-acetamido-4-carboxybutanoyl]amino]-4-carboxybutanoyl]amino]-4-carboxybutanoyl]amino]-4-carboxybutanoyl]-[Imp1, Aib2, … (peptide)
peptide: [Desaminohistidyl][Aib]HGTFTSDYSKYLESRRAQDFVAWLLK([γGlu-γGlu-γGlu-γGlu-Ac])T-OH
SMILES: CC(=O)N[C@@H](CCC(=O)N[C@@H](CCC(=O)N[C@@H](CCC(=O)N[C@@H](CCC(=O)NCCCC[C@H](NC(=O)[C@H](CC(C)C)NC(=O)[C@H](CC(C)C)NC(=O)[C@H](Cc1c[nH]c2ccccc12)NC(=O)[C@H](C)NC(=O)[C@@H](NC(=O)[C@H](Cc1ccccc1)NC(=O)[C@H](CC(=O)O)NC(=O)[C@H](CCC(N)=O)NC(=O)[C@H](C)NC(=O)[C@H](CCCNC(=N)N)NC(=O)[C@H](CCCNC(=N)N)NC(=O)[C@H](CO)NC(=O)[C@H](CCC(=O)O)NC(=O)[C@H](CC(C)C)NC(=O)[C@H](Cc1ccc(O)cc1)NC(=O)[C@H](CCCCN)NC(=O)[C@H](CO)NC(=O)[C@H](Cc1ccc(O)cc1)NC(=O)[C@H](CC(=O)O)NC(=O)[C@H](CO)NC(=O)[C@@H](NC(=O)[C@H](Cc1ccccc1)NC(=O)[C@@H](NC(=O)CNC(=O)[C@H](Cc1c[nH]cn1)NC(=O)C(C)(C)NC(=O)CCc1c[nH]cn1)[C@@H](C)O)[C@@H](C)O)C(C)C)C(=O)N[C@H](C(=O)O)[C@@H](C)O)C(=O)O)C(=O)O)C(=O)O)C(=O)O
notes: as for B1
B3: N^ε24-[(4S)-4-[[(4S)-4-[[(4S)-4-[[(4S)-4-acetamido-4-carboxybutanoyl]amino]-4-carboxybutanoyl]amino]-4-carboxybutanoyl]amino]-4-carboxybutanoyl]-[Imp1, Aib2, … (peptide)
peptide: [Desaminohistidyl][Aib]HGTFTSDYSKYLESRRAQEFVK([γGlu-γGlu-γGlu-γGlu-Ac])WLLST-OH
SMILES: CC(=O)N[C@@H](CCC(=O)N[C@@H](CCC(=O)N[C@@H](CCC(=O)N[C@@H](CCC(=O)NCCCC[C@H](NC(=O)[C@@H](NC(=O)[C@H](Cc1ccccc1)NC(=O)[C@H](CCC(=O)O)NC(=O)[C@H](CCC(N)=O)NC(=O)[C@H](C)NC(=O)[C@H](CCCNC(=N)N)NC(=O)[C@H](CCCNC(=N)N)NC(=O)[C@H](CO)NC(=O)[C@H](CCC(=O)O)NC(=O)[C@H](CC(C)C)NC(=O)[C@H](Cc1ccc(O)cc1)NC(=O)[C@H](CCCCN)NC(=O)[C@H](CO)NC(=O)[C@H](Cc1ccc(O)cc1)NC(=O)[C@H](CC(=O)O)NC(=O)[C@H](CO)NC(=O)[C@@H](NC(=O)[C@H](Cc1ccccc1)NC(=O)[C@@H](NC(=O)CNC(=O)[C@H](Cc1c[nH]cn1)NC(=O)C(C)(C)NC(=O)CCc1c[nH]cn1)[C@@H](C)O)[C@@H](C)O)C(C)C)C(=O)N[C@@H](Cc1c[nH]c2ccccc12)C(=O)N[C@@H](CC(C)C)C(=O)N[C@@H](CC(C)C)C(=O)N[C@@H](CO)C(=O)N[C@H](C(=O)O)[C@@H](C)O)C(=O)O)C(=O)O)C(=O)O)C(=O)O
notes: as for B1
B4: N^ε24-[(4S)-4-[[(4S)-4-[[(4S)-4-[[(4S)-4-acetamido-4-carboxybutanoyl]amino]-4-carboxybutanoyl]amino]-4-carboxybutanoyl]amino]-4-carboxybutanoyl]-[Imp1, Aib2, … (peptide)
peptide: [Desaminohistidyl][Aib]HGTFTSDYSKYLDLRRAQDFVK([γGlu-γGlu-γGlu-γGlu-Ac])WLLST-OH
SMILES: CC(=O)N[C@@H](CCC(=O)N[C@@H](CCC(=O)N[C@@H](CCC(=O)N[C@@H](CCC(=O)NCCCC[C@H](NC(=O)[C@@H](NC(=O)[C@H](Cc1ccccc1)NC(=O)[C@H](CC(=O)O)NC(=O)[C@H](CCC(N)=O)NC(=O)[C@H](C)NC(=O)[C@H](CCCNC(=N)N)NC(=O)[C@H](CCCNC(=N)N)NC(=O)[C@H](CC(C)C)NC(=O)[C@H](CC(=O)O)NC(=O)[C@H](CC(C)C)NC(=O)[C@H](Cc1ccc(O)cc1)NC(=O)[C@H](CCCCN)NC(=O)[C@H](CO)NC(=O)[C@H](Cc1ccc(O)cc1)NC(=O)[C@H](CC(=O)O)NC(=O)[C@H](CO)NC(=O)[C@@H](NC(=O)[C@H](Cc1ccccc1)NC(=O)[C@@H](NC(=O)CNC(=O)[C@H](Cc1c[nH]cn1)NC(=O)C(C)(C)NC(=O)CCc1c[nH]cn1)[C@@H](C)O)[C@@H](C)O)C(C)C)C(=O)N[C@@H](Cc1c[nH]c2ccccc12)C(=O)N[C@@H](CC(C)C)C(=O)N[C@@H](CC(C)C)C(=O)N[C@@H](CO)C(=O)N[C@H](C(=O)O)[C@@H](C)O)C(=O)O)C(=O)O)C(=O)O)C(=O)O
notes: Imp and Aib are written X under substitutions because they have no one-letter code
B5: N^ε24-[(4S)-4-[[(4S)-4-[[(4S)-4-[[(4S)-4-acetamido-4-carboxybutanoyl]amino]-4-carboxybutanoyl]amino]-4-carboxybutanoyl]amino]-4-carboxybutanoyl]-[Imp1, Aib2, … (peptide)
peptide: [Desaminohistidyl][Aib]HGTFTSDYSKYLDVRRAQDFVK([γGlu-γGlu-γGlu-γGlu-Ac])WLLST-OH
SMILES: CC(=O)N[C@@H](CCC(=O)N[C@@H](CCC(=O)N[C@@H](CCC(=O)N[C@@H](CCC(=O)NCCCC[C@H](NC(=O)[C@@H](NC(=O)[C@H](Cc1ccccc1)NC(=O)[C@H](CC(=O)O)NC(=O)[C@H](CCC(N)=O)NC(=O)[C@H](C)NC(=O)[C@H](CCCNC(=N)N)NC(=O)[C@H](CCCNC(=N)N)NC(=O)[C@@H](NC(=O)[C@H](CC(=O)O)NC(=O)[C@H](CC(C)C)NC(=O)[C@H](Cc1ccc(O)cc1)NC(=O)[C@H](CCCCN)NC(=O)[C@H](CO)NC(=O)[C@H](Cc1ccc(O)cc1)NC(=O)[C@H](CC(=O)O)NC(=O)[C@H](CO)NC(=O)[C@@H](NC(=O)[C@H](Cc1ccccc1)NC(=O)[C@@H](NC(=O)CNC(=O)[C@H](Cc1c[nH]cn1)NC(=O)C(C)(C)NC(=O)CCc1c[nH]cn1)[C@@H](C)O)[C@@H](C)O)C(C)C)C(C)C)C(=O)N[C@@H](Cc1c[nH]c2ccccc12)C(=O)N[C@@H](CC(C)C)C(=O)N[C@@H](CC(C)C)C(=O)N[C@@H](CO)C(=O)N[C@H](C(=O)O)[C@@H](C)O)C(=O)O)C(=O)O)C(=O)O)C(=O)O
notes: as for B1
B6: N^ε24-[(4S)-4-[[(4S)-4-[[(4S)-4-[[(4S)-4-acetamido-4-carboxybutanoyl]amino]-4-carboxybutanoyl]amino]-4-carboxybutanoyl]amino]-4-carboxybutanoyl]-[Imp1, Aib2, … (peptide)
peptide: [Desaminohistidyl][Aib]HGTFTSDLSKYLESRRAQDFVK([γGlu-γGlu-γGlu-γGlu-Ac])WLLST-OH
SMILES: CC(=O)N[C@@H](CCC(=O)N[C@@H](CCC(=O)N[C@@H](CCC(=O)N[C@@H](CCC(=O)NCCCC[C@H](NC(=O)[C@@H](NC(=O)[C@H](Cc1ccccc1)NC(=O)[C@H](CC(=O)O)NC(=O)[C@H](CCC(N)=O)NC(=O)[C@H](C)NC(=O)[C@H](CCCNC(=N)N)NC(=O)[C@H](CCCNC(=N)N)NC(=O)[C@H](CO)NC(=O)[C@H](CCC(=O)O)NC(=O)[C@H](CC(C)C)NC(=O)[C@H](Cc1ccc(O)cc1)NC(=O)[C@H](CCCCN)NC(=O)[C@H](CO)NC(=O)[C@H](CC(C)C)NC(=O)[C@H](CC(=O)O)NC(=O)[C@H](CO)NC(=O)[C@@H](NC(=O)[C@H](Cc1ccccc1)NC(=O)[C@@H](NC(=O)CNC(=O)[C@H](Cc1c[nH]cn1)NC(=O)C(C)(C)NC(=O)CCc1c[nH]cn1)[C@@H](C)O)[C@@H](C)O)C(C)C)C(=O)N[C@@H](Cc1c[nH]c2ccccc12)C(=O)N[C@@H](CC(C)C)C(=O)N[C@@H](CC(C)C)C(=O)N[C@@H](CO)C(=O)N[C@H](C(=O)O)[C@@H](C)O)C(=O)O)C(=O)O)C(=O)O)C(=O)O
notes: as for B1
B7: N^ε24-[(4S)-4-[[(4S)-4-[[(4S)-4-[[(4S)-4-acetamido-4-carboxybutanoyl]amino]-4-carboxybutanoyl]amino]-4-carboxybutanoyl]amino]-4-carboxybutanoyl]-[Imp1, His3, … (peptide)
peptide: [Desaminohistidyl]SHGTFTSDYSKYLESRRAQEFVK([γGlu-γGlu-γGlu-γGlu-Ac])WLLST-OH
SMILES: CC(=O)N[C@@H](CCC(=O)N[C@@H](CCC(=O)N[C@@H](CCC(=O)N[C@@H](CCC(=O)NCCCC[C@H](NC(=O)[C@@H](NC(=O)[C@H](Cc1ccccc1)NC(=O)[C@H](CCC(=O)O)NC(=O)[C@H](CCC(N)=O)NC(=O)[C@H](C)NC(=O)[C@H](CCCNC(=N)N)NC(=O)[C@H](CCCNC(=N)N)NC(=O)[C@H](CO)NC(=O)[C@H](CCC(=O)O)NC(=O)[C@H](CC(C)C)NC(=O)[C@H](Cc1ccc(O)cc1)NC(=O)[C@H](CCCCN)NC(=O)[C@H](CO)NC(=O)[C@H](Cc1ccc(O)cc1)NC(=O)[C@H](CC(=O)O)NC(=O)[C@H](CO)NC(=O)[C@@H](NC(=O)[C@H](Cc1ccccc1)NC(=O)[C@@H](NC(=O)CNC(=O)[C@H](Cc1c[nH]cn1)NC(=O)[C@H](CO)NC(=O)CCc1c[nH]cn1)[C@@H](C)O)[C@@H](C)O)C(C)C)C(=O)N[C@@H](Cc1c[nH]c2ccccc12)C(=O)N[C@@H](CC(C)C)C(=O)N[C@@H](CC(C)C)C(=O)N[C@@H](CO)C(=O)N[C@H](C(=O)O)[C@@H](C)O)C(=O)O)C(=O)O)C(=O)O)C(=O)O
notes: Imp written X under substitutions

*1 amine or outer side, *2 acyl side, *3 side chain or, on linkers, in order; H or OH if unused. Side-chain parts run from the residue outwards. [ ]: non-standard residue; d: D form. The star is where a group is joined. γGlu = O=C(O)[C@H](CCC(=O)[*:2])N[*:1]; Desaminohistidyl = O=C(CCc1c[nH]cn1)*; Aib = CC(C)(N)C(=O)O

This note sets out measurements from patent US20170008943A1 (Novo Nordisk, published 2017).

Broadly, the IC50 is the concentration at which inhibition is half-maximal. Read a low IC50 as greater potency in that assay.

In the first experiment the target is T1, human glucagon receptor (human, UniProt P47871 26-477).
T1 construct: whole, on cells; Potency assay (I)(b): whole BHK cells (clone pLJ6'-4-25) with CRE luciferase; also called hGlucagonR; hGCGR
T1 sequence (P47871 26-477): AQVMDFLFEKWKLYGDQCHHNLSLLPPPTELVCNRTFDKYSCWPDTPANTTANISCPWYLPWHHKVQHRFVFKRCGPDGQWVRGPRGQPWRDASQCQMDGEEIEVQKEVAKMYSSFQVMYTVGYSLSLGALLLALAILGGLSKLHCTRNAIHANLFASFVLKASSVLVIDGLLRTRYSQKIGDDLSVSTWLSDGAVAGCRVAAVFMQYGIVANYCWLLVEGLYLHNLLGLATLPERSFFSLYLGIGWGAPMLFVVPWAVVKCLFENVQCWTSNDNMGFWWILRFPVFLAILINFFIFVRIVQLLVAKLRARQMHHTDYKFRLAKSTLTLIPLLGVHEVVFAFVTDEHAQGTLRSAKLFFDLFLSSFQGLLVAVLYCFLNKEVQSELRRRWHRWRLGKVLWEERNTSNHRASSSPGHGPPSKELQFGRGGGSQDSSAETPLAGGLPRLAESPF
Put plainly: displacement of 125I-glucagon from BHK membranes with human glucagon receptor (SPA), Assay (II)(b). A general note: In a radioligand displacement assay an active substance lowers the binding of a labelled ligand.
For the molecule B1, the IC50 was 1.9 nM.

For the molecule B2, the IC50 worked out at 1.8 nM.

Turning to B3, the IC50 worked out at 1 nM. This IC50 is about 1.8-fold lower than that of the molecule before.

The molecule B4 registered an IC50 of 0.2 nM.

Turning to B5, the IC50 was found to be 0.5 nM.

B6 registered an IC50 of 4.9 nM.

As to B7, the IC50 is 1.8 nM.

For another experiment, the target named is T1, human glucagon receptor. Briefly: cell-based or functional assay.
For the molecule B1, the “EC50 hGlucagonR (pM), CRE luciferase reporter in BHK cells” value (from here on “EC50 hGlucagonR (pM)”) amounted to 5 pM.

Consider B2, for which the “EC50 hGlucagonR (pM)” value was 5 pM.

Take B3: the “EC50 hGlucagonR (pM)” value worked out at 2 pM.

Regarding B4, the “EC50 hGlucagonR (pM)” value was 1 pM.

With B5, the “EC50 hGlucagonR (pM)” value is 2 pM.

For B6, the “EC50 hGlucagonR (pM)” value turned out to be 10 pM.

Take B7: the “EC50 hGlucagonR (pM)” value amounted to 4.7 pM.
